T1: TREM2 peptide 149-161, wild type (Homo sapiens, UniProt Q9NZC2)
T1 chain: SFEDAHVEHSISR

B1: Fab fragment of antibody 3.10C2 (Fab, V domains shown)
VH: EVQLVETGGSLVQPGKSLKLTCATSGFPFSNVWMHWVRQSPEKQLEWIAHIKAKSDNYATYYAESVKGRFTISRDDSKTSIYLQMNSLKEDDTAIYYCTGLDYWGQGVMVTVSS
VL: DTVLTQAPLSLSVTPGESASISCRSSKSLLGVRDITSLYWYLQKPGKSPQLLIYRMSNLASGVPDRFSGSGSETDFTLKISEVETEDVGVYYCAQFLRYPYTFGPGTKLELK
B2: Fab fragment of antibody Para.09 (Fab, V domains shown)
VH: EVQLVETGGSLVQPGKSLRLTCATSGFPFSNVWLHWVRQSPEKHPEWVAHIKAKSDNYATYYAESVKGRFTISRDDSKSSVFLQMNSLKEEDTAIYYCTDILEYWGQGTLVTVSS
VL: DTVLTQAPLSLSVTPGESASISCRSSKSLLGVRDITSLYWYLQKPGKSPQLLIYRMSNLASGVPDRFSGSGSETDFTLKISEVETEDVGVYYCAQFLRYPYTFGPGTKLELK
B3: hu3.10C2 G106hD (antibody, V domains shown)
VH: EVQLVESGGGLVQPGGSLKLSCATSGFPFSNVWMHWVRQASGKGLEWIAHIKAKSDNYATYYAESVKGRFTISRDDSKTTIYLQMNSLKTEDTAVYYCTDLDYWGQGTTVTVSS
VL: DVVMTQSPLSLPVTPGEPASISCRSSRSLLTSKGITSLYWYLQKPGQSPQLLIYRMSNLASGIPDRFSGSGSGTDFTLKISRVEAEDVGVYYCAQFLVYPYTFGPGTKVEIK
B4: hu3.10C2 G106hD/D116hE (antibody, V domains shown)
VH: EVQLVESGGGLVQPGGSLKLSCATSGFPFSNVWMHWVRQASGKGLEWIAHIKAKSDNYATYYAESVKGRFTISRDDSKTTIYLQMNSLKTEDTAVYYCTDLEYWGQGTTVTVSS
VL: DVVMTQSPLSLPVTPGEPASISCRSSRSLLTSKGITSLYWYLQKPGQSPQLLIYRMSNLASGIPDRFSGSGSGTDFTLKISRVEAEDVGVYYCAQFLVYPYTFGPGTKVEIK
B5: hu3.10C2 I107h insertion/D116hE (antibody, V domains shown)
VH: EVQLVESGGGLVQPGGSLKLSCATSGFPFSNVWMHWVRQASGKGLEWIAHIKAKSDNYATYYAESVKGRFTISRDDSKTTIYLQMNSLKTEDTAVYYCTGILEYWGQGTTVTVSS
VL: DVVMTQSPLSLPVTPGEPASISCRSSRSLLTSKGITSLYWYLQKPGQSPQLLIYRMSNLASGIPDRFSGSGSGTDFTLKISRVEAEDVGVYYCAQFLVYPYTFGPGTKVEIK
B6: hu3.10C2 I107h insertion (antibody, V domains shown)
VH: EVQLVESGGGLVQPGGSLKLSCATSGFPFSNVWMHWVRQASGKGLEWIAHIKAKSDNYATYYAESVKGRFTISRDDSKTTIYLQMNSLKTEDTAVYYCTGILDYWGQGTTVTVSS
VL: DVVMTQSPLSLPVTPGEPASISCRSSRSLLTSKGITSLYWYLQKPGQSPQLLIYRMSNLASGIPDRFSGSGSGTDFTLKISRVEAEDVGVYYCAQFLVYPYTFGPGTKVEIK
B7: hu3.10C2 D116hE (antibody, V domains shown)
VH: EVQLVESGGGLVQPGGSLKLSCATSGFPFSNVWMHWVRQASGKGLEWIAHIKAKSDNYATYYAESVKGRFTISRDDSKTTIYLQMNSLKTEDTAVYYCTGLEYWGQGTTVTVSS
VL: DVVMTQSPLSLPVTPGEPASISCRSSRSLLTSKGITSLYWYLQKPGQSPQLLIYRMSNLASGIPDRFSGSGSGTDFTLKISRVEAEDVGVYYCAQFLVYPYTFGPGTKVEIK
B8: hu3.10C2 G106hD/I107h insertion/D116hE (antibody, V domains shown)
VH: EVQLVESGGGLVQPGGSLKLSCATSGFPFSNVWMHWVRQASGKGLEWIAHIKAKSDNYATYYAESVKGRFTISRDDSKTTIYLQMNSLKTEDTAVYYCTDILEYWGQGTTVTVSS
VL: DVVMTQSPLSLPVTPGEPASISCRSSRSLLTSKGITSLYWYLQKPGQSPQLLIYRMSNLASGIPDRFSGSGSGTDFTLKISRVEAEDVGVYYCAQFLVYPYTFGPGTKVEIK
B9: antibody 3.27H7 (antibody, V domains shown)
VH: EVQLVETGGSLVQPGGSLKLTCATSGFPFSNVWLHWIRRSPEKQLEWVAQIKARSDNYATYYAESVKGRFIVSRDDSKTTIYLQMNNLKEEDTAIYYCTGLDYWGQGVMVTVSS
VL: DVVLTQAPLSVSVTPGESASISCRSSRSLLTSKGITSLYWYLQKPGMSPHLLIYRMSNLASGIPDRFSGSGSETDFTLKISEVEPEDVGVYYCAQFLVYPYTFGAGTKLELK
B10: antibody 3.18E5 (antibody, V domains shown)
VH: EVQLVETGGSLVQPGKSLKLTCATSGFPFSNVWMHWVRQSPEKQLEWIAHIKAKSDNYATYYAESVKGRFTISRDDSKTTIYLQMNSLKEADTAIYYCTGLDYWGQGVMVTVSS
VL: DTVLTQAPLSVSVTPGESASISCRSNKSLLGIRDITSLYWYLQKPGKSPQLLIYRMSNLASGVPDRFSGSGSETDFTLKISEVETEDVGVYYCAQFLRYPYTFGPGTKLELK
B11: antibody 3.50G1 (antibody, V domains shown)
VH: EVQLVETGGSLVQPGKSLKLTCATSGFPFSNVWMHWVRQSPEKQLEWIAHIKAKSDNYATYYAESVKGRFTISRDDSKTSIYLQMNSLKDDDTAIYYCTGLDYWGQGVMVTVSS
VL: DTVLTQAPLSVSVTPGESASISCRSNKSLLGIRDITSLYWFLQKPGKSPQLLIYRMSNLASGVPDRFSGSGSETDFTLKISEVETEDVGVYYCAQFLRYPYTFGPGTKLELQ
B12: antibody 3.41B10 (antibody, V domains shown)
VH: AVQLVESGGGLVQPKESLKISCEASGFTFTNAAMNWVRQAPGKGLEWVARIRTKPNNYRTYYADSVRGRFTISRDDSKSMVHLQMDNLKTEDTAMYYCTGEGPQGGFVYWGQGTLVTVSS
VL: DIVMTQSPSSLTVSAGGTVTINCKSSQSLLYSGDRKNYLAWYQQKPGQSPKLLIYWSSTRQSGVPDRFIGSGSGTDFTLTISSVQAEDLAIYYCQQYYDSPLTFGSGTKLDIK
B13: antibody 3.22B9 (antibody, V domains shown)
VH: AVQVVESGGGLVQPKGSLKISCAVSGFTFSDAAMHWVRQAPGKGLEWVARIRTKPNSYATYYADSVKGRFIISRDDSKNMVYLQMDNLKIEDTAMYYCTAGTTTAPFDYWGQGVMVTVSS
VL: DIVMIQSPSSVAVSAGETVTINCKSSQSLLYSGDHKNYLAWFQQKPGQSPKLLIYWASTRLSDVPDRVIGSGSGTDFTLTISSVQAEDLATYYCQQYYDTPLTFGSGTKVEIK
B14: 3.10A7 (antibody, V domains shown)
VH: AVQLVESGGGLVQPKESLKISCAASGITFSNAAMFWVRQAPGKGLEWVARIRTKPNNYATNYADSVKGRFTISRDDSKSMVYLQMDNLKTEDTAMYYCTAGTTVVPFDYWGQGVMVTVSS
VL: DIVMTQSPSSLAVSAGETVTIDCKSSQSLLYSGNQKTYLAWYQQKPGQSPKLLIYWASTRQSGVPDRFIGSGSGTDFTLTISSVQAEDLAIYYCQQYYDTPLTFGSGTKLEIK
B15: 3.21B10 (antibody, V domains shown)
VH: AVQLIESGGGLVQPKGSLKISCAASGFTFSDAAMFWVRQAPGKGLEWIARIRTKPNNYATYYADSVRGRFTISRDDSKSMVYLQMDNLKTDDTAMYYCIEGVNYGGSPFVYWGQGTLVTVSS
VL: DIVMTQSPSSLAVSAGETVTINCKSSQSLLYSGNQKSYLAWYQQKPGQSPKLLIYWASTRQSGVPDRFIGSVSGTDFTLTISSVQAEDLAIYYCQQYYDIPLTFGSGTKVEIK
B16: R19-11-38 (antibody, V domains shown)
VH: AVQLVESGGGLVQPKESLKISCAASGFTFSNAAMYWVRQAPGKGLEWVARIRTKPNNYATYYADSVKGRFTISRDDSKSMVYLQMDNLKTEDTAMYYCTAAFYGYYFDYWGQGVMVTVSS
VL: DIVMTQSPSSLAVSAGETVTIDCKSSQSLLYSGNQKTYLAWYQQKPGQSPKLLIYWASTRQSGVPDRFIGSGSGTDFTLTISSVQAEDLAIYYCQQYYDTPLTFGSGTKLEIK
B17: R19-11-40 (antibody, V domains shown)
VH: AVQLVESGGGLVQPKESLKISCAASGFTFSNAAMFWVRQAPGEGLEWVARIRTKPNSYATYYADSVKGRFTISRDDSKSMVYLQMDNLKTEDTAMYYCTADYPGMGFDSWGQGVMVTVSS
VL: DIVMTQSPSSLAVSAGETVTIDCKSSQSLLYSGNQKTYLAWYQQKPGQSPKLLIYWASTRQSGVPDRFIGSGSGTDFTLTISSVQAEDLAIYYCQQYYDTPLTFGSGTKLEIK
B18: R19-11-37 (antibody, V domains shown)
VH: AVQLVESGGGLVQPKESLKISCAASGFTFSNAAMYWVRQAPGKGLEWVARIRTKPNNYATYYADSVKGRFTISRDDSKSMVYLQMDNLKTEDTAMYYCIASRYGYDFDYWGQGVMVTVSS
VL: DIVMTQSPSSLAVSAGETVTIDCKSSQSLLYSGNQKTYLAWYQQKPGQSPKLLIYWASTRQSGVPDRFIGSGSGTDFTLTISSVQAEDLAIYYCQQYYDTPLTFGSGTKLEIK
B19: R19-11-42 (antibody, V domains shown)
VH: AVQLVESGGGLVHPQESLKISCLASGLSFSSAAMYWVRQVPGKGLEWLARIRTKPNNYATFYADSVKGRFTISRDDSKSMVFLQMDDLNTEDTAIYYCTASVFTVAFEYWGQGVMVTVSS
VL: DIVMTQSPSSLAVSAGETVTIDCKSSQSLLYSGNQKTYLAWYQQKPGQSPKLLIYWASTRQSGVPDRFIGSGSGTDFTLTISSVQAEDLAIYYCQQYYDTPLTFGSGTKLEIK
B20: R19-11-41 (antibody, V domains shown)
VH: AVQLVESGGGLVQPKESLKISCAASGFTFSNAAMYWVRQAPGKGLEWVARIRTKPNNYATYYADSVKGRFTISRDDSKSMVYLQMDNLKTEDTAMYYCTAEGITTWFDYWGQGVMVTVSS
VL: DIVMTQSPSSLAVSAGETVTIDCKSSQSLLYSGNQKTYLAWYQQKPGQSPKLLIYWASTRQSGVPDRFIGSGSGTDFTLTISSVQAEDLAIYYCQQYYDTPLTFGSGTKLEIK

Biological target: T1, TREM2 peptide 149-161, wild type
Assay: BLI

Binding result, binds:
B1
B2

biological target: T2, human TREM2 extracellular domain (ECD) (Homo sapiens, UniProt Q9NZC2); assay: SPR
Target sequence in this assay (Q9NZC2 19-174): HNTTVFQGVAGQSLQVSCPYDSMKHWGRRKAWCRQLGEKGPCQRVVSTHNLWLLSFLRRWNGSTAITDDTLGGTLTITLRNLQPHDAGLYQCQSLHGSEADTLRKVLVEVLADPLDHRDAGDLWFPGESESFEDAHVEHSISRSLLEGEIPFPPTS

Binding result, binds:
B3
B4
B5
B6
B7
B8

biological target: T3, human TREM2 on live cells (Homo sapiens, UniProt Q9NZC2); assay: flow cytometry on cells

Binding result, binds:
B9
B10
B11
B12
B13

biological target: T3, human TREM2 on live cells; assay: not given

Binding result, binds:
B14
B15

biological target: T2, human TREM2 extracellular domain (ECD); assay: not given

Binding result, binds:
B14
B16
B17
B18
B15
B19
B20

— PMC11437124 (Nature Communications, 2024)
